{"source": "patent US20220332804A1", "about": "(CSL INNOVATION, published 2022)", "binders": {"B1": {"name": "RF16-242 (antibody, human IgG4 S228P, lambda, V domains shown)", "VH": "EVQLLQSGAEVKKPGESLKISCKGSGYSFTSYWIGWVRQMPGKGLEWMGIIYPGDSDTRYSPSFQGQVTISADKSISTAYLQWSSLKASDTAMYYCARRGHYGDYFDYWGQGTLVTVSS", "VL": "SYELTQPPSVSVSPGQTARITCSGDALPKKYAYWYHQKSGQAPVLVIYEDRRRPSEIPERFSGSSSGTMATLTITGAQVEDEGVYFCYSRDRAGNQRVFGGGTQLTVLG", "notes": "pH-dependent anti-C2 antibody from a phage display library"}}, "assay_in_all_cases": "SPR, KD relative to WT C2;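 also: biacore SPR at 37 °C, anti-C2 mAbs captured on anti-human IgG chips with alanine or serine point mutants of C2 as analyte, KD from 1:1 fit compared with wild-type C2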", "key": {"human C2 F689A": {"molecular_target": "T1, human C2 F689A (human, UniProt P06681 21-752)", "T1 sequence": "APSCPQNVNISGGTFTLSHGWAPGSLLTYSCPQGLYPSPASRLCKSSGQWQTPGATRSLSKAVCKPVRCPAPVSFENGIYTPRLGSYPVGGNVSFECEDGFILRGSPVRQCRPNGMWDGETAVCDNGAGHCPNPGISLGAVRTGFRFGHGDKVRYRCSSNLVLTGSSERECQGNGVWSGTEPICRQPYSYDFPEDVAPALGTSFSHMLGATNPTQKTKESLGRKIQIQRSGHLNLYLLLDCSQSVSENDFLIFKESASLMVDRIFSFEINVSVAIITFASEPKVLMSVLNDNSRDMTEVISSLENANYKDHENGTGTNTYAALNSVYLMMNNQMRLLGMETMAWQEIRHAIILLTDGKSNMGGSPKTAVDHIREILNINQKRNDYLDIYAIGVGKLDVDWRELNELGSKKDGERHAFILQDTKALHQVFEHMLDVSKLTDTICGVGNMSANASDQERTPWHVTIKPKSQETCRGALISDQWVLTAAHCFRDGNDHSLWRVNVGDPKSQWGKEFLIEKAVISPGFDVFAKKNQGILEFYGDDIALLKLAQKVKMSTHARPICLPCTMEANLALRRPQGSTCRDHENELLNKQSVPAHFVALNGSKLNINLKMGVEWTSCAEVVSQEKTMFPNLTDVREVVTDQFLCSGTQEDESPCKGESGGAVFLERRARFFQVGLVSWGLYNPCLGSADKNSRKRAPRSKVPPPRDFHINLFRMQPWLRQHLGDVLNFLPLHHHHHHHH"}, "human C2 K329A": {"molecular_target": "T2, human C2 K329A (human, UniProt P06681 21-752)", "T2 sequence": "T1 sequence with K309A, A669F"}, "human C2 E267A": {"molecular_target": "T3, human C2 E267A (human, UniProt P06681 21-752)", "T3 sequence": "T1 sequence with E247A, A669F"}, "human C2 L453A": {"molecular_target": "T4, human C2 L453A (human, UniProt P06681 21-752)", "T4 sequence": "T1 sequence with L433A, A669F"}}, "note": "Numbering of substitutions follows the chain as printed."}
{"binder": "B1", "values": [{"measurement": "Fold diff", "setting": "human C2 F689A", "value": 1, "unit": "fold"}, {"measurement": "Fold diff", "setting": "human C2 K329A", "value": 2, "unit": "fold"}, {"measurement": "Fold diff", "setting": "human C2 E267A", "value": 2, "unit": "fold"}, {"measurement": "Fold diff", "setting": "human C2 L453A", "value": 1, "unit": "fold"}]}
